Where no end group is shown, it is not given here. fluorescein or rhodamine = not defined here
Experiments:
[1] = biological target: T1, peptide 1 (Example 8), labeled with fluorescein (labeled with fluorescein (site not stated)); assay: FRET (fluorescein/rhodamine) and fluorescence polarization (fluorescein/biotin with streptavidin), 6 µM total peptide, 1:1
T1 construct: Heterodimer partner in the chymotrypsin assays
T1 peptide: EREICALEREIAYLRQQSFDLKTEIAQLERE

[2] = biological target: the molecule itself; assay: FRET between the fluorescein- and rhodamine-labelled forms of the same peptide (homodimer)
[3] = biological target: T2, peptide C labelled with rhodamine (CR) (not fully specified; N-terminal acetyl; C-terminal amide; labelled with rhodamine (or vice versa with fluorescein)); assay: FRET between fluorescein- and rhodamine-labelled peptides
T2 construct: Artificial designer peptide, one partner of a heterodimeric coiled coil
T2 peptide: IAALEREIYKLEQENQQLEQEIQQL

[4] = biological target: the molecule itself; assay: FRET (fluorescein/rhodamine) and fluorescence polarization (fluorescein/biotin), 6 µM total peptide, 6:1
[5] = biological target: T3, reporter peptide 1 (Example 10), labeled with fluorescein (labeled with fluorescein (site not stated)); assay: FRET (fluorescein/rhodamine), 5 µM total peptide, 1:1
T3 construct: Heterodimer partner in the thrombin assay
T3 peptide: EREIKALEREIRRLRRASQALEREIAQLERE

B1: peptide 2 (Example 8), labeled with rhodamine (FRET) or biotin (FP) (peptide)
peptide: LRQRIQCLRQKIAYLRQQSFDLKTQIAQLRQR
modifications: also: rhodamine or biotin label, site not given here
notes: Heterodimer partner in the chymotrypsin assays; Both labelled forms are written as one molecule
- binding result [1]: binds

B2: Peptide 4 (Example 5, caspase 2, 3, 7 site) (peptide)
peptide: RMKQLEDKVEELLDENDHLENEVACLKKLVGER
modifications: also: fluorescein or rhodamine label, site not given here
notes: GCN4-derived homodimeric reporter; Both labelled forms are written as one molecule
- binding result [2]: binds

B3: peptide B labelled with fluorescein (BF) (peptide)
peptide: IAALRERICYLRERNQQLRQRIQQL
modifications: not fully specified; also: fluorescein label, site not given here
notes: Artificial designer peptide, one partner of a heterodimeric coiled coil
- binding result [3]: binds

B4: reporter peptide (Example 9, TEV) (peptide)
peptide: KGRMRCLEDRVENLYSQSYHLENEVARLRRLVGELAAK
modifications: not fully specified; also: homodimer
notes: Forms a homodimer; All labelled forms are written as one molecule (6:1 ratio R:F or biotin:F)
- binding result [4]: binds

B5: Peptide 2 (Example 3, TEV protease cleavage site) (peptide)
peptide: RMKQLEDKVENLYSQSYHLENEVAC(fluorescein or rhodamine)LKKLVGER
modifications: reading uncertain
notes: GCN4-derived homodimeric reporter; The fluorescein- and rhodamine-labelled forms are written as one molecule
- binding result [2]: binds

B6: reporter peptide 2 (Example 10), labeled with rhodamine (peptide)
peptide: LRQRIQCLRYRIRRLRRASQALRQRIAQLKQR
modifications: also: rhodamine label, site not given here
notes: Heterodimer partner in the thrombin assay
- binding result [5]: binds
